According to PMC3324550, “Antibiotic Resistance Is Prevalent in an Isolated Cave Microbiome” (PLoS ONE, 2012):

What was measured:
[1] = test system: T1, MPH (2′)-II from B. paraconglomeratum (mphE); assay: pyruvate kinase/lactate dehydrogenase coupled assay, NADH absorbance at […] nm; assay type: biochemical, Brachybacterium paraconglomeratum
T1 construct: codon-optimised synthetic gene in pET28b (NdeI/HindIII), E. coli BL21(DE3); IMAC and gel filtration

[2] = target: T1, MPH (2′)-II from B. paraconglomeratum (mphE); assay: as above; assay type: biochemical, Brachybacterium paraconglomeratum; details: substrate inhibition constant (substrate-inhibition fit); GTP 200 µM
[3] = test system: Nc1nc2c(ncn2[C@@H]2O[C@H](COP(=O)(O)OP(=O)(O)OP(=O)(O)O)[C@@H](O)[C@H]2O)c(=O)[nH]1; assay: purified protein; assay type: biochemical, Brachybacterium faecium; details: erythromycin 400 µM (table note; methods say 200 µM macrolide)
[4] = test system: CC[C@H]1OC(=O)[C@H](C)[C@@H](O[C@H]2C[C@@](C)(OC)[C@@H](O)[C@H](C)O2)[C@H](C)[C@@H](O[C@@H]2O[C@H](C)C[C@H](N(C)C)[C@H]2O)[C@](C)(OC)C[C@@H](C)C(=O)[C@H](C)[C@@H](O)[C@]1(C)O; assay: purified protein; assay type: biochemical, Brachybacterium faecium; details: GTP 200 µM
[5] = test system: CC[C@H]1OC(=O)[C@H](C)[C@@H](O[C@H]2C[C@@](C)(OC)[C@@H](O)[C@H](C)O2)[C@H](C)[C@@H](O[C@@H]2O[C@H](C)C[C@H](N(C)C)[C@H]2O)[C@](C)(O)C[C@@H](C)/C(=N\OCOCCOC)[C@H](C)[C@@H](O)[C@]1(C)O; assay: purified protein; assay type: biochemical, Brachybacterium faecium; details: GTP 200 µM
[6] = test system: CC[C@H]1OC(=O)[C@H](C)[C@@H](O[C@H]2C[C@@](C)(OC)[C@@H](O)[C@H](C)O2)[C@H](C)[C@@H](O[C@@H]2O[C@H](C)C[C@H](N(C)C)[C@H]2O)[C@](C)(O)C[C@@H](C)CN(C)[C@H](C)[C@@H](O)[C@]1(C)O; assay: purified protein; assay type: biochemical, Brachybacterium faecium; details: GTP 200 µM
[7] = test system: CC[C@H]1OC(=O)[C@H](C)C(=O)[C@H](C)[C@@H](O[C@@H]2O[C@H](C)C[C@H](N(C)C)[C@H]2O)[C@](C)(OC)C[C@@H](C)C(=O)[C@H](C)[C@H]2N(CCCCn3cnc(-c4cccnc4)c3)C(=O)O[C@]12C; assay: purified protein; assay type: biochemical, Brachybacterium faecium; details: GTP 200 µM
[8] = test system: CC[C@H]1OC(=O)[C@H](C)[C@@H](O[C@H]2C[C@@](C)(OC)[C@@H](O)[C@H](C)O2)[C@H](C)[C@@H](O[C@@H]2O[C@H](C)C[C@H](N(C)C)[C@H]2O)[C@](C)(O)C[C@@H](C)C(=O)[C@H](C)[C@@H](O)[C@]1(C)O; assay: purified protein; assay type: biochemical, Brachybacterium faecium; details: GTP 200 µM

CC[C@H]1OC(=O)[C@H](C)[C@@H](O[C@H]2C[C@@](C)(OC)[C@@H](O)[C@H](C)O2)[C@H](C)[C@@H](O[C@@H]2O[C@H](C)C[C@H](N(C)C)[C@H]2O)[C@](C)(OC)C[C@@H](C)C(=O)[C@H](C)[C@@H](O)[C@]1(C)O [Clarithromycin]
Km ([1]; GTP 200 µM): 21.9 ± 5.45 µM

CC[C@H]1OC(=O)[C@H](C)C(=O)[C@H](C)[C@@H](O[C@@H]2O[C@H](C)C[C@H](N(C)C)[C@H]2O)[C@](C)(OC)C[C@@H](C)C(=O)[C@H](C)[C@H]2N(CCCCn3cnc(-c4cccnc4)c3)C(=O)O[C@]12C [Telithromycin]
Km ([1]; GTP 200 µM, substrate-inhibition fit): 12.2 ± 5 µM
Ki [2]: 600 ± 285 µM

CC[C@H]1OC(=O)[C@H](C)[C@@H](O[C@H]2C[C@@](C)(OC)[C@@H](O)[C@H](C)O2)[C@H](C)[C@@H](O[C@@H]2O[C@H](C)C[C@H](N(C)C)[C@H]2O)[C@](C)(O)C[C@@H](C)C(=O)[C@H](C)[C@@H](O)[C@]1(C)O [Erythromycin]
Km ([1]; GTP 200 µM): 43.8 ± 11.3 µM

CC[C@H]1OC(=O)[C@H](C)[C@@H](O[C@H]2C[C@@](C)(OC)[C@@H](O)[C@H](C)O2)[C@H](C)[C@@H](O[C@@H]2O[C@H](C)C[C@H](N(C)C)[C@H]2O)[C@](C)(O)C[C@@H](C)CN(C)[C@H](C)[C@@H](O)[C@]1(C)O [Azithromycin]
Km ([1]; GTP 200 µM): 54 ± 7.59 µM

Nc1nc2c(ncn2[C@@H]2O[C@H](COP(=O)(O)OP(=O)(O)OP(=O)(O)O)[C@@H](O)[C@H]2O)c(=O)[nH]1 [GTP]
Km ([1]; erythromycin 400 µM (table note; methods say 200 µM macrolide)): 10.2 ± 0.53 µM

CC[C@H]1OC(=O)[C@H](C)[C@@H](O[C@H]2C[C@@](C)(OC)[C@@H](O)[C@H](C)O2)[C@H](C)[C@@H](O[C@@H]2O[C@H](C)C[C@H](N(C)C)[C@H]2O)[C@](C)(O)C[C@@H](C)/C(=N\OCOCCOC)[C@H](C)[C@@H](O)[C@]1(C)O [Roxithromycin]
Km ([1]; GTP 200 µM): 59 ± 10.9 µM

MPH (2′)-II from B. faecium DSM 4810 (Brachybacterium faecium DSM 4810)
Km [3]: 16.0 ± 1.3 µM
kcat [3]: 0.203 s⁻¹
kcat/Km [3]: 12700 M⁻¹ s⁻¹
Km [4]: 42.0 ± 6.26 µM
kcat [4]: 0.286 s⁻¹
kcat/Km [4]: 6810 M⁻¹ s⁻¹
Km [5]: 19.3 ± 2.60 µM
kcat [5]: 0.262 s⁻¹
kcat/Km [5]: 13600 M⁻¹ s⁻¹
Km [6]: 60.6 ± 8.86 µM
kcat [6]: 0.312 s⁻¹
kcat/Km [6]: 5180 M⁻¹ s⁻¹
Km [7]: 23.9 ± 4.22 µM
kcat [7]: 0.168 s⁻¹
kcat/Km [7]: 7050 M⁻¹ s⁻¹
Km [8]: 38.2 ± 6.24 µM
kcat [8]: 0.192 s⁻¹
kcat/Km [8]: 5030 M⁻¹ s⁻¹
